From US7879571B2, “Population based assessments and means to rank the relative immunogenicity of proteins” (Danisco US Inc., priority 2003, dated 2011)
“Also recorded” adds a separate entry of the source.

B1: E6 16: human papillomavirus E6 protein, HPV strain 16 (protein, UniProt P03126 1-158, looked up)
Protein E6: MHQKRTAMFQDPQERPRKLPQLCTELQTTIHDIILECVYCKQQLLRREVYDFAFRDLCIVYRDGNPYAVCDKCLKFYSKISEYRHYCYSLYGTTLEQQYNKPLCDLLIRCINCQKPLCPEEKQRHLDKKQRFHNIRGRWTGRCMSCCRSSRTRRETQL
B2: BPN′ variant: BPN′ Y217L variant where prominent responses to amino acids 70-84 and 109-123 were reduced to background level (protein, UniProt P00782 108-382, looked up, variant Y217L)
Subtilisin BPN': AQSVPYGVSQIKAPALHSQGYTGSNVKVAVIDSGIDSSHPDLKVAGGASMVPSETNPFQDNNSHGTHVAGTVAALNNSIGVLGVAPSASLYAVKVLGADGSGQYSWIINGIEWAIANNMDVINMSLGGPSGSAALKAAVDKAVASGVVVVAAAGNEGTSGSSSTVGYPGKYPSVIAVGAVDSSNQRASFSSVGPELDVMAPGVSIQSTLPGNKYGALNGTSMASPHVAGAAALILSKHPNWTNTQVRSSLENTTTKLGDSFYYGKGLINVQAAAQ
B3: E7 31: HPV E7 protein, HPV strain 31 (protein, UniProt P17387 1-98, looked up)
Protein E7: MRGETPTLQDYVLDLQPEATDLHCYEQLPDSSDEEDVIDSPAGQAEPDTSNYNIVTFCCQCKSTLRLCVQSTQVDIRILQELLMGSFGIVCPNCSTRL
B4: ALCALASE ®: ALCALASE® enzyme, commercially available from Novo; Swissprot accession number P00780 (protein, UniProt P00780 106-379, looked up)
Subtilisin Carlsberg: AQTVPYGIPLIKADKVQAQGFKGANVKVAVLDTGIQASHPDLNVVGGASFVAGEAYNTDGNGHGTHVAGTVAALDNTTGVLGVAPSVSLYAVKVLNSSGSGSYSGIVSGIEWATTNGMDVINMSLGGASGSTAMKQAVDNAYAKGVVVVAAAGNSGSSGNTNTIGYPAKYDSVIAVGAVDSNSNRASFSSVGAELEVMAPGAGVYSTYPTNTYATLNGTSMASPHVAGAAALILSKHPNLSASQVRNRLSSTATYLGSSFYYGKGLINVEAAAQ
B5: E6 31: human papillomavirus E6 protein, HPV strain 31 (protein, UniProt P17386 1-149, looked up)
Protein E6: MFKNPAERPRKLHELSSALEIPYDELRLNCVYCKGQLTETEVLDFAFTDLTIVYRDDTPHGVCTKCLRFYSKVSEFRWYRYSVYGTTLEKLTNKGICDLLIRCITCQRPLCPEEKQRHLDKKKRFHNIGGRWTGRCIACWRRPRTETQV
B6: sTNFR1: soluble tumor necrosis factor receptor 1, a soluble recombinant cytokine receptor molecule (protein, UniProt P19438 30-211, looked up)
extracellular domain: LVPHLGDREKRDSVCPQGKYIHPQNNSICCTKCHKGTYLYNDCPGPGQDTDCRECESGSFTASENHLRHCLSCSKCRKEMGQVEISSCTVDRDTVCGCRKNQYRHYWSENLFQCFNCSLCLNGTVHLSCQEKQNTVCTCHAGFFLRENECVSCSNCKKSLECTKLCLPQIENVKGTEDSGTT
modifications: extracellular domain
B7: E7 33: HPV E7 protein, HPV strain 33 (protein, UniProt P06429 1-97, looked up)
Protein E7: MRGHKPTLKEYVLDLYPEPTDLYCYEQLSDSSDEDEGLDRPDGQAQPATADYYIVTCCHTCNTTVRLCVNSTASDLRTIQQLLMGTVNIVCPTCAQQ
B8: E7 45: HPV E7 protein, HPV strain 45 (protein, UniProt P21736 1-106, looked up)
Protein E7: MHGPRETLQEIVLHLEPQNELDPVDLLCYEQLSESEEENDEADGVSHAQLPARRAEPQRHKILCVCCKCDGRIELTVESSAEDLRTLQQLFLSTLSFVCPWCATNQ
B9: E6 33: human papillomavirus E6 protein, HPV strain 33 (protein, UniProt P06427 1-149, looked up)
Protein E6: MFQDTEEKPRTLHDLCQALETTIHNIELQCVECKKPLQRSEVYDFAFADLTVVYREGNPFGICKLCLRFLSKISEYRHYNYSVYGNTLEQTVKKPLNEILIRCIICQRPLCPQEKKRHVDLNKRFHNISGRWAGRCAACWRSRRRETAL

Experiments:
[1] = system: 18 different HLA-DR and -DQ proteins; experiment: HLA class II peptide binding competition assay, panel of 18 alleles; design: species or system human; settings: good binders: IC50 less than 500 nM
Procedure: FIG. 17 provides a table showing the IC50 binding values for epitope peptides identified in bacterial proteases by the I-MUNE® assay system of the present invention. Values less than 500 nM are considered to be good binders and are highlighted in bold in the Table. Degeneracy indicates the number of HLA class II proteins that bind with an IC50 of less than 500 nM out of the 18 total alleles tested.
In addition to the above I-MUNE® assay, peptide binding assays were also performed. The peptide binding assay used during the development of the present invention is known in the art (Southwood et al., J. Immunol., 160:3363-3373 [1998]). Briefly, HLA-DR and -DQ molecules were purified from a panel of EBV transformed cell lines. A competition assay was performed with a characterized standard peptide, and the unknown peptide. The amount of unknown peptide required to compete 50% of the standard peptide binding was then determined (indicated as the IC50).
The IC50 for HLA class II protein binding was determined for peptide epitopes defined by the in two related industrial bacterial proteases (See, FIG. 17). The peptides were tested in a competition assay for binding to 18 different HLA-DR and -DQ proteins. […] This likely explains the association seen in the data for a response to this peptide with HLA-DR6(13) donors (p=0.00015; relative risk=7.22, n=113 donors tested). […]

[2] = system: CD4+ T-cells; experiment: I-MUNE assay: CD4+ T-cell proliferation with dendritic cells and 15-mer peptides offset by 3 amino acids, community donors; settings: for Background % / Structure Value / Response/Peptide: Table 3; for Response/Peptide: donors with SI>2.95 per peptide; for Background +/- sd / Responses/peptide found: Table 5
Procedure: Peptides were resuspended in DMSO at approximately 1 to 2 mg/ml, and stored at −70° C. prior to use. Each peptide was tested at least in duplicate, although for small peptide sets (e.g., Ber e 1), the peptides were routinely tested in triplicate.
Volunteer donor human blood buffy coat samples were obtained from two commercial sources (Stanford Blood Center, Palo Alto, Calif., and the Sacramento Medical Foundation, Sacramento, Calif.). Buffy coat samples were further purified by density separation. Each sample was HLA typed for HLA-DR and HLA-DQ using a commercial PCR-based kit (Bio-Synthesis).
Monocytes were purified by adherence to plastic in AIM V medium (Gibco/Life Technologies). Adherent cells were cultured in AIM V media containing 500 units/ml of recombinant human IL-4 (Endogen) and 800 units/ml recombinant human GM-CSF (Endogen) for 5 days. On day 5, recombinant human IL-1α (Endogen) and recombinant human TNF-α (Endogen) were added to 50 units/ml and 0.2 units/ml, respectively. On day 7, the fully matured dendritic cells were treated with 50 ug/ml mitomycin C (Sigma) for 1 hour at 37° C. Treated dendritic cells were dislodged with 50 mM EDTA in PBS, washed in AIM V medium, counted, and resuspended in AIM V media at 2×10^5 cells/ml.
CD4^+ T-cells were purified by negative selection from frozen aliquots of human peripheral blood mononuclear cells (PBMC) using Cellect CD4 columns (Cedarlane). CD4^+ T-cell populations were routinely >80% pure and >95% viable as judged by trypan blue (Sigma) exclusion. CD4^+ T-cells were resuspended in AIM V media at 2×10^6 cells per ml.
CD4^+ T-cells and dendritic cells were plated in round-bottomed 96 well format plates at 100 ul of each cell mix per well. Peptide was added to a final concentration of approximately 5 ug/ml in 0.25-0.5% DMSO. Control wells contained 0.5% DMSO without added peptide. Each peptide was tested in duplicate. Cultures were incubated at 37° C., in 5% CO2 for 5 days. On day 5, 0.5 uCi of tritiated thymidine (NEN DuPont,) was added to each well. On day 6, the cultures were harvested onto glass fiber mats using a TomTec manual harvester (TomTec), then processed for scintillation counting. Proliferation was assessed by determining the average counts per minute (CPM) value for each set of duplicate wells (TriLux Beta).
For each individual buffy coat sample, the average CPM values for all of the peptides were analyzed. The average CPM values for each peptide were divided by the average CPM value for the control (DMSO only) wells to determine the “stimulation index” (SI). Donors were tested with each peptide set until an average of at least two responses per peptide were compiled. The data for each protein was graphed showing the percent responders to each peptide within the set. A positive response was collated if the SI value was equal to or greater than 2.95. This value was chosen as it approximates a difference of three standard deviations in a normal population distribution. For each protein assessed, positive responses to individual peptides by individual donors were compiled. To determine the background response for a given protein, the percent responders for each peptide in the set were averaged and a standard deviation was calculated. SI values for each donor were compiled for each peptide set, and the percent of responders reported.

[3] = system: PBMC; experiment: Maximum proliferative response of PBMC from 30 community donors to inactivated whole protein; type: cell-based, human; settings: inactivated enzymes, 5 to 40 ug/ml, 30 donors; p<0.01; listed as protease variant
Procedure: FIG. 9 provides a graph showing the maximum proliferative responses of PBMC from 30 community donors to BPN′ Y217L (open triangles, structure value=0.53) and the […] BPN′ Y217L variant (closed squares, structure value=0.40). Each donor's maximum response is shown on the y-axis. An SI of 2.0 was the cut-off for a “positive” response. The difference in proliferative responses between BPN′ Y217L and the variant was p<0.01.
In these experiments, PMBC from thirty community donors were tested parametrically with either the whole protein parent enzyme (BPN′ Y217L) or the variant protease. The enzymes were inactivated, and tested over a dose range from 5 to 40 ug/ml. […] The difference between optimal SI values for the two proteins tested on these thirty donors was significant, with a two-tailed parametric t-test value of p<0.01.

| Molecule | Background % [2] [%] | Structure Value [2] | Response/Peptide [2] | other results |
| --- | --- | --- | --- | --- |
| BPN' Y217L #24: 15-mer epitope peptide number 24 of BPN′ Y217L, first epitope (amino acids 70-84) (GTVAALNNSIGVLGV; UniProt P00782 177-191, looked up, fragment) | – | – | – | HLA class II binding (in words) [1]: binds most HLA class II molecules tested |
| BPN' Y217L#37: 15-mer epitope peptide number 37 of BPN′ Y217L, second epitope (amino acids 109-123) (NGIEWAIANNMDVIN; UniProt P00782 216-230, looked up, fragment) | – | – | – | HLA class II binding (in words) [1]: promiscuous |
| E6 18: human papillomavirus E6 protein, HPV strain 18 | 4.23 | 0.79 | 2.32 | Background response in words (compared with the 11 industrial enzymes) [2]: not significantly different; Background +/- sd [2]: 4.23 +/− 4.25; Responses/peptide found [2]: 2.32 |
| E7 16: HPV E7 protein, HPV strain 16 | 4.33 | 0.66 | 3.9 | – |
| E7 18: HPV E7 protein, HPV strain 18 | 3.55 | 0.44 | 3.19 | – |
| hTpo: human thrombopoietin, a cytokine whose expression is restricted to the bone marrow | – | – | – | Structure value in words [2]: comparatively high; Background +/- sd [2]: 2.54 +/− 2.23 |
| B1 | 7.12 | 0.72 | 3.92 | Background response in words (compared with the 11 industrial enzymes) [2]: significantly higher; Background +/- sd [2]: 7.12 +/− 6.48; Responses/peptide found [2]: 3.92 |
| B2 | – | – | – | Proliferation compared with the parent protein (in words) [3]: significantly less proliferation; also recorded: induced less proliferation; Prominent Epitope ([2]; Table 4, number of prominent epitopes): 0; Structure value of variant ([2]; calculated from the 113-donor dataset with responses to 70-84 and 109-123 reduced to background levels): 0.40 |
| B3 | 5.26 | 0.78 | 3.1 | – |
| B4 | – | – | – | Prominent responses (amino acids / peptide positions) ([2]; regions of the protein sequence): 19-33 |
| B5 | 4.66 | 0.53 | 3.26 | – |
| B6 | – | – | – | Background +/- sd [2]: 2.23 +/− 1.95 |
| B7 | 4.32 | 0.54 | 2.55 | – |
| B8 | 3.75 | 0.76 | 2.44 | – |
| B9 | 2.83 | 0.68 | 1.97 | – |
